Consider 1 substance from paper doi:10.1101/2023.02.27.530324.

The target in assay [1] is Enhygromyxa salina luciferase LuxA (Enhygromyxa salina). Description: SAXS.
The target is the same in assay [2]. Nature of the assay: SEC-MALS.

The stoichiometry N is the number of molecules, sites or subunits per partner or assembly.

“And” between values parts separate entries of the source, which are not always exact repeats. Equal entries are not always repeated.

Consider “Enhygromyxa salina luciferase LuxA (enzyme)”, for which, in assay [1], the percent of the protein as dimers came to 82%; the percent of the protein as tetramers worked out at 18%; the stoichiometry N is 2 and 4. Further, the stoichiometry N in assay [2] is 2 and 4.
